The values that follow come from ChEMBL document CHEMBL1250451, “Mechanistic insights into a Ca2+-dependent family of alpha-mannosidases in a human gut symbiont” (Nat Chem Biol, 2010).

Holding throughout (format): protein assay
Substrate in series [1]: O=[N+]([O-])c1ccc(O[C@H]2O[C@H](CO)[C@@H](O)[C@H](O)[C@@H]2O)c([N+](=O)[O-])c1
In words: (§1) Ratio of Kcat to Km for Bacteroides thetaiotaomicron GH92 alpha-mannosidase 3990 N601A mutant assessed as as mannose release after 16 hrs by HPLC relative to wild type enzyme.

Substrate in series [2]: O=[N+]([O-])c1ccc(O[C@H]2O[C@H](CO)[C@@H](O)[C@H](O)[C@@H]2O)cc1
The description is as §1.

Substrate in series [3]: OC[C@H]1O[C@H](O[C@H]2[C@@H](O)[C@H](O)[C@@H](CO)O[C@@H]2O)[C@@H](O)[C@@H](O)[C@@H]1O
The description is as §1.

Substrate in series [4]: O=[N+]([O-])c1ccc(O[C@H]2O[C@H](CO)[C@@H](O)[C@H](O)[C@@H]2O)cc1
In words: (§2) Activity of Bacteroides thetaiotaomicron GH92 alpha-mannosidase 3990 N601A mutant assessed as as mannose release after 16 hrs by HPLC relative to wild type enzyme.

Substrate in series [5]: OC[C@H]1O[C@H](O[C@H]2[C@@H](O)[C@H](O)[C@@H](CO)O[C@@H]2O)[C@@H](O)[C@@H](O)[C@@H]1O
Described as §2.

Substrate in series [6]: O=[N+]([O-])c1ccc(O[C@H]2O[C@H](CO)[C@@H](O)[C@H](O)[C@@H]2O)c([N+](=O)[O-])c1
The experiment in a line: (§3) Ratio of Kcat to Km for Bacteroides thetaiotaomicron GH92 alpha-mannosidase 3990 Q602A mutant assessed as as mannose release after 16 hrs by HPLC relative to wild type enzyme.

Substrate in series [7]: O=[N+]([O-])c1ccc(O[C@H]2O[C@H](CO)[C@@H](O)[C@H](O)[C@@H]2O)cc1
The description is as §3.

Substrate in series [8]: OC[C@H]1O[C@H](O[C@H]2[C@@H](O)[C@H](O)[C@@H](CO)O[C@@H]2O)[C@@H](O)[C@@H](O)[C@@H]1O
Described as §3.

Substrate in series [9]: O=[N+]([O-])c1ccc(O[C@H]2O[C@H](CO)[C@@H](O)[C@H](O)[C@@H]2O)cc1
In words: (§4) Activity of Bacteroides thetaiotaomicron GH92 alpha-mannosidase 3990 Q602A mutant assessed as as mannose release after 16 hrs by HPLC relative to wild type enzyme.

Substrate in series [10]: OC[C@H]1O[C@H](O[C@H]2[C@@H](O)[C@H](O)[C@@H](CO)O[C@@H]2O)[C@@H](O)[C@@H](O)[C@@H]1O
The series is described as §4.

Substrate in series [11]: O=[N+]([O-])c1ccc(O[C@H]2O[C@H](CO)[C@@H](O)[C@H](O)[C@@H]2O)c([N+](=O)[O-])c1
The experiment in a line: (§5) Ratio of Kcat to Km for Bacteroides thetaiotaomicron GH92 alpha-mannosidase 3990 E533A mutant assessed as as mannose release after 16 hrs by HPLC relative to wild type enzyme.

Substrate in series [12]: O=[N+]([O-])c1ccc(O[C@H]2O[C@H](CO)[C@@H](O)[C@H](O)[C@@H]2O)cc1
The description is as §5.

Substrate in series [13]: OC[C@H]1O[C@H](O[C@H]2[C@@H](O)[C@H](O)[C@@H](CO)O[C@@H]2O)[C@@H](O)[C@@H](O)[C@@H]1O
Described as §5.

Substrate in series [14]: O=[N+]([O-])c1ccc(O[C@H]2O[C@H](CO)[C@@H](O)[C@H](O)[C@@H]2O)cc1
The experiment in a line: (§6) Activity of Bacteroides thetaiotaomicron GH92 alpha-mannosidase 3990 E533A mutant assessed as as mannose release after 16 hrs by HPLC relative to wild type enzyme.

Substrate in series [15]: OC[C@H]1O[C@H](O[C@H]2[C@@H](O)[C@H](O)[C@@H](CO)O[C@@H]2O)[C@@H](O)[C@@H](O)[C@@H]1O
Described as §6.

Substrate in series [16]: O=[N+]([O-])c1ccc(O[C@H]2O[C@H](CO)[C@@H](O)[C@H](O)[C@@H]2O)cc1
In words: (§7) Activity of Bacteroides thetaiotaomicron GH92 alpha-mannosidase 3990 S86A mutant assessed as mannose release after 16 hrs by HPLC relative to wild type enzyme.

Substrate in series [17]: OC[C@H]1O[C@H](O[C@H]2[C@@H](O)[C@H](O)[C@@H](CO)O[C@@H]2O)[C@@H](O)[C@@H](O)[C@@H]1O
The series is described as §7.

Substrate in series [18]: O=[N+]([O-])c1ccc(O[C@H]2O[C@H](CO)[C@@H](O)[C@H](O)[C@@H]2O)c([N+](=O)[O-])c1
In words: (§8) Ratio of Kcat to Km for Bacteroides thetaiotaomicron GH92 alpha-mannosidase 3990 S86A mutant assessed as mannose release after 16 hrs by HPLC relative to wild type enzyme.

Substrate in series [19]: O=[N+]([O-])c1ccc(O[C@H]2O[C@H](CO)[C@@H](O)[C@H](O)[C@@H]2O)cc1
The description is as §8.

Substrate in series [20]: OC[C@H]1O[C@H](O[C@H]2[C@@H](O)[C@H](O)[C@@H](CO)O[C@@H]2O)[C@@H](O)[C@@H](O)[C@@H]1O
Described as §8.

B1: Alpha-1,2-mannosidase (BT_3990) (Bacteroides thetaiotaomicron), Q8A0N1 N601A (protein)
chain: MKRLLLIACILNCTLLSQAKDWTQYVNPLMGSQSTFELSTGNTYPAIARPWGMNFWTPQTGKMGDGWQYTYTANKIRGFKQTHQPSPWINDYGQFSIMPIVGQPVFDEEKRASWFAHKGEVATPYYYKVYLAEHDIVTEMTPTERAVLFRFTFPENDHSYVVVDAFDKGSYIKIIPEENKIIGYTTRNSGGVPENFKNYFIIEFDKPFTYKATVENGNLQENVAEQTTDHAGAIIGFKTRKGEQVNARIASSFISFEQAAANMNELGKDNIEQLAQKGKDAWNQVLGKIEVEGGNLDQYRTFYSCLYRSLLFPRKFYELDANGQPIHYSPYNGQVLPGYMFTDTGFWDTFRCLFPLLNLMYPSVNKEMQEGLINTYLESGFFPEWASPGHRGCMVGNNSASILVDAYMKGVKVDDIKTLYEGLIHGTENVHPEVSSTGRLGYEYYNKLGYVPYDVKINENAARTLEYAYDDWCIYRLAKELKRPKKEISLFAKRAMNYKNLFDKESKLMRGRNEDGTFQSPFSPLKWGDAFTEGNSWHYTWSVFHDPQGLIDLMGGKEMFVTMMDSVFAVPPIFDDSYYGQVIHEIREMTVMNMGNYAHGAQPIQHMIYLYDYAGQPWKAQYWLRQVMDRMYTPGPDGYCGDEDNGQTSAWYVFSALGFYPVCPGTDEYVMGTPLFKKATLHFENGNSLVIDAPNNSTENFYIDSMSFNGADHTKNYLRHEDLFKGGTIKVDMSNRPNLNRGTKEEDMPYSFSKE
B1: the catalytic efficiency (kcat/Km) came to 6.17 M⁻¹ s⁻¹ in series [1], 0.05 M⁻¹ s⁻¹ in series [2] and 250 M⁻¹ s⁻¹ in [3]. In addition, the Km in series [4] came to 9.7 mM; in series [5] it was 3.3 mM. Also, the kcat turned out to be 0.00055 s⁻¹ in [4] and 0.85 s⁻¹ in series [5].

B2: Alpha-1,2-mannosidase (BT_3990) (Bacteroides thetaiotaomicron), Q8A0N1 Q602A (protein)
chain: MKRLLLIACILNCTLLSQAKDWTQYVNPLMGSQSTFELSTGNTYPAIARPWGMNFWTPQTGKMGDGWQYTYTANKIRGFKQTHQPSPWINDYGQFSIMPIVGQPVFDEEKRASWFAHKGEVATPYYYKVYLAEHDIVTEMTPTERAVLFRFTFPENDHSYVVVDAFDKGSYIKIIPEENKIIGYTTRNSGGVPENFKNYFIIEFDKPFTYKATVENGNLQENVAEQTTDHAGAIIGFKTRKGEQVNARIASSFISFEQAAANMNELGKDNIEQLAQKGKDAWNQVLGKIEVEGGNLDQYRTFYSCLYRSLLFPRKFYELDANGQPIHYSPYNGQVLPGYMFTDTGFWDTFRCLFPLLNLMYPSVNKEMQEGLINTYLESGFFPEWASPGHRGCMVGNNSASILVDAYMKGVKVDDIKTLYEGLIHGTENVHPEVSSTGRLGYEYYNKLGYVPYDVKINENAARTLEYAYDDWCIYRLAKELKRPKKEISLFAKRAMNYKNLFDKESKLMRGRNEDGTFQSPFSPLKWGDAFTEGNSWHYTWSVFHDPQGLIDLMGGKEMFVTMMDSVFAVPPIFDDSYYGQVIHEIREMTVMNMGNYAHGNAPIQHMIYLYDYAGQPWKAQYWLRQVMDRMYTPGPDGYCGDEDNGQTSAWYVFSALGFYPVCPGTDEYVMGTPLFKKATLHFENGNSLVIDAPNNSTENFYIDSMSFNGADHTKNYLRHEDLFKGGTIKVDMSNRPNLNRGTKEEDMPYSFSKE
As for B2, the kcat/Km in [6] is 20 M⁻¹ s⁻¹; in series [7] it was 0.35 M⁻¹ s⁻¹; in series [8], 383 M⁻¹ s⁻¹. The Michaelis constant (Km) is 6.6 mM in [9] and 16 mM in series [10]. For the same protein, the figures for the kcat in series [9] and in series [10] were 0.00233 s⁻¹ and 6 s⁻¹, respectively.

B3: Alpha-1,2-mannosidase (BT_3990) (Bacteroides thetaiotaomicron), Q8A0N1 E533A (protein)
chain: MKRLLLIACILNCTLLSQAKDWTQYVNPLMGSQSTFELSTGNTYPAIARPWGMNFWTPQTGKMGDGWQYTYTANKIRGFKQTHQPSPWINDYGQFSIMPIVGQPVFDEEKRASWFAHKGEVATPYYYKVYLAEHDIVTEMTPTERAVLFRFTFPENDHSYVVVDAFDKGSYIKIIPEENKIIGYTTRNSGGVPENFKNYFIIEFDKPFTYKATVENGNLQENVAEQTTDHAGAIIGFKTRKGEQVNARIASSFISFEQAAANMNELGKDNIEQLAQKGKDAWNQVLGKIEVEGGNLDQYRTFYSCLYRSLLFPRKFYELDANGQPIHYSPYNGQVLPGYMFTDTGFWDTFRCLFPLLNLMYPSVNKEMQEGLINTYLESGFFPEWASPGHRGCMVGNNSASILVDAYMKGVKVDDIKTLYEGLIHGTENVHPEVSSTGRLGYEYYNKLGYVPYDVKINENAARTLEYAYDDWCIYRLAKELKRPKKEISLFAKRAMNYKNLFDKESKLMRGRNEDGTFQSPFSPLKWGDAFTAGNSWHYTWSVFHDPQGLIDLMGGKEMFVTMMDSVFAVPPIFDDSYYGQVIHEIREMTVMNMGNYAHGNQPIQHMIYLYDYAGQPWKAQYWLRQVMDRMYTPGPDGYCGDEDNGQTSAWYVFSALGFYPVCPGTDEYVMGTPLFKKATLHFENGNSLVIDAPNNSTENFYIDSMSFNGADHTKNYLRHEDLFKGGTIKVDMSNRPNLNRGTKEEDMPYSFSKE
As for B3, the specificity constant (kcat/Km) in series [11] was found to be 6000 M⁻¹ s⁻¹; in [12], 0.35 M⁻¹ s⁻¹; in series [13], 3 M⁻¹ s⁻¹. The Km in series [14] is 9.3 mM; in series [15], 1.4 mM. The kcat in series [14] was determined as 0.00333 s⁻¹; in [15], 0.00433 s⁻¹.

B4: Alpha-1,2-mannosidase (BT_3990) (Bacteroides thetaiotaomicron), Q8A0N1 S86A (protein)
chain: MKRLLLIACILNCTLLSQAKDWTQYVNPLMGSQSTFELSTGNTYPAIARPWGMNFWTPQTGKMGDGWQYTYTANKIRGFKQTHQPAPWINDYGQFSIMPIVGQPVFDEEKRASWFAHKGEVATPYYYKVYLAEHDIVTEMTPTERAVLFRFTFPENDHSYVVVDAFDKGSYIKIIPEENKIIGYTTRNSGGVPENFKNYFIIEFDKPFTYKATVENGNLQENVAEQTTDHAGAIIGFKTRKGEQVNARIASSFISFEQAAANMNELGKDNIEQLAQKGKDAWNQVLGKIEVEGGNLDQYRTFYSCLYRSLLFPRKFYELDANGQPIHYSPYNGQVLPGYMFTDTGFWDTFRCLFPLLNLMYPSVNKEMQEGLINTYLESGFFPEWASPGHRGCMVGNNSASILVDAYMKGVKVDDIKTLYEGLIHGTENVHPEVSSTGRLGYEYYNKLGYVPYDVKINENAARTLEYAYDDWCIYRLAKELKRPKKEISLFAKRAMNYKNLFDKESKLMRGRNEDGTFQSPFSPLKWGDAFTEGNSWHYTWSVFHDPQGLIDLMGGKEMFVTMMDSVFAVPPIFDDSYYGQVIHEIREMTVMNMGNYAHGNQPIQHMIYLYDYAGQPWKAQYWLRQVMDRMYTPGPDGYCGDEDNGQTSAWYVFSALGFYPVCPGTDEYVMGTPLFKKATLHFENGNSLVIDAPNNSTENFYIDSMSFNGADHTKNYLRHEDLFKGGTIKVDMSNRPNLNRGTKEEDMPYSFSKE
Turning to B4, the Km in [16] came to 8.5 mM; in series [17], 3.2 mM. In addition, the values for the turnover number (kcat) in series [16] and in series [17] were 0.00667 s⁻¹ and 2 s⁻¹, respectively. Also, the values for the specificity constant (kcat/Km) in [18], in series [19] and in [20] were 51.7 M⁻¹ s⁻¹, 0.783 M⁻¹ s⁻¹ and 6330 M⁻¹ s⁻¹, respectively.
